Laboratory results from patent publication US20220401536A1 (published 2022).

Tests used:
[1] = molecular target: mouse PD-1 (endogenous, on mouse CD4+ and CD8+ T cells) (mouse) (UniProt Q02242); experiment: cell-based or functional assay
[2] = molecular target: T1, DD1α-HA (HA-tagged DD1α expressed in 293T cells or on Jurkat cells) (human, UniProt Q9H7M9 33-311); experiment: competition with DD1α-Ig and PD-1-Ig for binding to Jurkat cells transfected with DD1α, flow cytometry
T1 construct: also called Jurkat/DD1α; DD1α-transfected Jurkat cells; not shown: HA tag

mouse PD-1 (endogenous, on mouse CD4+ and CD8+ T cells) (mouse), sequence (Q02242 25-288): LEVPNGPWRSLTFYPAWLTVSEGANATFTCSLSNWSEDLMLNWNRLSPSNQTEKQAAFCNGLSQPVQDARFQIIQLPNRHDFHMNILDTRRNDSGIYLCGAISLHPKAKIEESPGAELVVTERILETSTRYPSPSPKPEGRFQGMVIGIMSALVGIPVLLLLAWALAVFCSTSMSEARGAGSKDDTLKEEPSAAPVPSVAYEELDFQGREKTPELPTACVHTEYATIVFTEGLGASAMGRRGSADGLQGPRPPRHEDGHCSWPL

Row | CFSE- and Far Red-double-positive events: DD1α-/- CD11b+Gr-1+ MDSCs with PD-1-/- CD8+ T cells [1] [%] | CFSE- and Far Red-double-positive events: DD1α-null CD11b+Gr-1+ MDSCs with Wt CD8+ T cells [1] [%] | CFSE- and Far Red-double-positive events: Wt CD11b+Gr-1+ MDSCs with PD-1-/- CD8+ T cells [1] [%] | CFSE- and Far Red-double-positive events: Wt CD11b+Gr-1+ MDSCs with Wt CD8+ T cells [1] [%] | proliferation of CD4+ T cells (CFSE dilution) with DD1α-/- CD11b+Gr-1high MDSCs [1] [%] | proliferation of CD8+ T cells (CFSE dilution) with DD1α-/- CD11b+Gr-1high MDSCs [1] [%] | binding result [2] | Binder
1 | 1.36 | 7.1 | 6.59 | 22 | 70 | 63 |  | mouse DD1α (endogenous, on mouse T cells or CD11b+Gr-1+ MDSCs) (receptor, UniProt Q9D659 33-308, looked up) FKVTTPYSLYVCPEGQNATLTCRILGPVSKGHDVTIYKTWYLSSRGEVQMCKEHRPIRNFTLQHLQHHGSHLKANASHDQPQKHGLELASDHHGNFSITLRNVTPRDSGLYCCLVIELKNHHPEQRFYGSMELQVQAGKGSGSTCMASNEQDSDSITAAALATGACIVGILCLPLILLLVYKQRQVASHRRAQELVRMDSNTQGIENPGFETTPPFQGMPEAKTRPPLSYVAQRQPSESGRYLLSDPSTPLSPPGPGDVFFPSLDPVPDSPNSEAI
2 |  |  |  |  |  |  | binds | anti-DD1α monoclonal antibody 2B11 (antibody, V domains shown, Purified from hybridoma; also called DD1α-specific Ab 2B11) VH: EVQLVESGGDLVKPGGSLKLSCAASGFTFSNYGMSWVRQTPDKRLEYVATINSGGSYTYYPDSVKGRFTISRDNAKTTLYLQMSSLKSEDTAMYYCARIYDYDGDYYALDYWGQGTSVTVSS VL: DVLMTQTPLSLPVSLGDQASISCRSSQSIVHTNGNTYLEWYLQKPGQSPKLLIYKVSNRFSGVPDRFSGSGSGTDFTLKISRVEAEDLGVYYCFQGSHVPWTFGGGTKLEIK
